Target: T1, MxiD[SctC] (Shigella flexneri, UniProt Q04641 23-566)
T1 construct: the last 18 residues (S549-Y566) are not resolved; 16 subunits in the connector (N0, N1), 15 in the OM ring (N3, secretin, S domain); also called secretin; OM ring
T1 sequence: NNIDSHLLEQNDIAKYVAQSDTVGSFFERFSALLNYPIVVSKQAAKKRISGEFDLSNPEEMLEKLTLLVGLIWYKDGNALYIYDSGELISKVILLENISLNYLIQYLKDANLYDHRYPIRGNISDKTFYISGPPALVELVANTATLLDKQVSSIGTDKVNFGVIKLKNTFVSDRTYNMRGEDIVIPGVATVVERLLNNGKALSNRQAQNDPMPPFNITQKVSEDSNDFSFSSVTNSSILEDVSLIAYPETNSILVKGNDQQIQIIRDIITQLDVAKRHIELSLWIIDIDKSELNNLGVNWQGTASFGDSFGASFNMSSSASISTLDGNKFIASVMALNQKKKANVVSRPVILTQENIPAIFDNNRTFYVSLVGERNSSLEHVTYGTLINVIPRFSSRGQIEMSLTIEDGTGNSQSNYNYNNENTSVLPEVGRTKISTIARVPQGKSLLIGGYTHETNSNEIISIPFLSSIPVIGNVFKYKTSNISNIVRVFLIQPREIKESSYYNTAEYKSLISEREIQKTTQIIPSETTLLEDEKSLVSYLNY
Experiment: cross-linking; BS3 cross-linking mass spectrometry of the isolated needle complex; 0.2-0.3 mM BS3, 30 min, room temperature; 2% FDR at residue-pair level
Conditions: both partners purified

B1: MxiM[SctG] (natural protein)
chain: CALKSSSNSEKEWHIVPVSKDYFSIPNDLLWSFNTTNKSINVYSKCISGKAVYSFNAGKFMGNFNVKEVDGCFMDAQKIAIDKLFSMLKDGVVLKGNKINDTILIEKDGEVKLKLIRGI
modifications: lipidated N-terminus
notes: MxiM[SctG], pilotin of the Shigella flexneri T3SS; also called pilotin; pilot protein
binding result: binds
